The source of these data is US6747005.

Data set [1] concerns the target Rch1 N-terminal fragment (residues 1-95), P52292.
Data set [2] has as its target recombinant Importin α Rch1, full-length, P52292.
In data set [3] the target is ΔN-Rch1 lacking the Importin β binding site, P52292.

B1: recombinant CBP HAT domain (amino acids 1098-1758) (protein)
chain: TLEALYRQDPESLPFRQPVDPQLLGIPDYFDIVKNPMDLSTIKRKLDTGQYQEPWQYVDDVWLMFNNAWLYNRKTSRVYKFCSKLAEVFEQEIDPVMQSLGYCCGRKYEFSPQTLCCYGKQLCTIPRDAAYYSYQNRYHFCEKCFTEIQGENVTLGDDPSQPQTTISKDQFEKKKNDTLDPEPFVDCKECGRKMHQICVLHYDIIWPSGFVCDNCLKKTGRPRKENKFSAKRLQTTRLGNHLEDRVNKFLRRQNHPEAGEVFVRVVASSDKTVEVKPGMKSRFVDSGEMSESFPYRTKALFAFEEIDGVDVCFFGMHVQNTALIAPHQIQGRVYISYLDSIHFFRPRCLRTAVYHEILIGYLEYVKKLGYVTGHIWACPPSEGDDYIFHCHPPDQKIPKPKRLQEWYKKMLDKAFAERIINDYKDIFKQANEDRLTSAKELPYFEGDFWPNVLEESIKELEQEEEERKKEESTAASETPEGSQGDSKNAKKKNNKKTNKNKSSISRANKKKPSMPNVSNDLSQKLYATMEKHKEVFFVIHLHAGPVISTQPPIVDPDPLLSCDLMDGRDAFLTLARDKHWEFSSLRRSKWSTLCMLVELHTQGQDRFVYTCNECKHHVETRWHCTVCEDYDLCINCYNTKSHTHKMVKWGLGLDDEGSSQG
Consider B1, for which the “acetylation (analysis as in the first experiment)” value in the data set with Importin α7 was “CBP was shown to acetylate Importin α family members, Rch1 and Importin α7”; in data set [2], “CBP was shown to acetylate Importin α family members, Rch1 and Importin α7”. Also, the “acetylation ([14-C]-acetyl coA, SDS-PAGE, blot exposed to film)” value is “Only the full-length Rch1 and the N-terminal 1-95 fragment showed acetylation” in data set [1]; “Only the full-length Rch1 and the N-terminal 1-95 fragment showed acetylation” in data set [2]; “Only the full-length Rch1 and the N-terminal 1-95 fragment showed acetylation. (ΔN-Rch1 showed none)” in data set [3].
